Assay results published in publication PMC7411133, “Phosphorylations of the Abutilon Mosaic Virus Movement Protein Affect Its Self-Interaction, Symptom Development, Viral DNA Accumulation, and Host Range” (Frontiers in Plant Science, 2020).
Numbering of substitutions follows the chain as printed. Names may count otherwise. “Also recorded” adds a separate entry of the source.

B1: AbMV movement protein, full-length, T221A/S223A/S250A (MP^AAA), fused to mVenus or mTurquoise2 (natural protein, Abutilon mosaic virus, UniProt P21946 1-293, looked up)
chain: MDSQLVNPPNAFNYIESHRDEYQLSHDLTEIILQFPSTAAQLTARLSRSCMKIDHCVIEYRQQVPINATGSVIVEIHDKRMTDNESLQASWTFPIRCNIDLHYFSASFFSLKDPIPWKLYYKVCDTNVHQRTHFAKFKGKLKLSTAKHSVDIPFRAPTVRILSKQFSEKDVDFSHVDYGKWERKPIRCASMSRIGLRGPIEIRPGESWASRSTIGTAQPDADAEMENELHPYRHLNRLGTSLLDPGESAAIVGDQRAEPNITMSMGQLNELVRTAVQECVNSNCQASQAKSLK
notes: Movement protein (MP; BC1) of Abutilon mosaic virus, full-length; Two copies expressed from one T-DNA (pFRETtv-2-in-1), one with mVenus and one with mTurquoise2, in four layouts (NN, NC, CN, CC); each copy carries one fluorescent protein at one end; also called mVenus::MP^AAA; MP^AAA::mVenus; source: N. benthamiana leaf epidermis, transiently expressed after agro-infiltration, in living cells; …
B2: AbMV movement protein, full-length, T221D/S223D/S250D (MP^DDD), fused to mVenus or mTurquoise2 (natural protein, Abutilon mosaic virus, UniProt P21946 1-293, looked up)
chain: B1 chain with A221D, A223D, A250D
notes: Movement protein (MP; BC1) of Abutilon mosaic virus, full-length; Two copies expressed from one T-DNA (pFRETtv-2-in-1), one with mVenus and one with mTurquoise2, in four layouts (NN, NC, CN, CC); each copy carries one fluorescent protein at one end; also called mVenus::MP^DDD; MP^DDD::mVenus; source: N. benthamiana leaf epidermis, transiently expressed after agro-infiltration, in living cells; …
B3: AbMV movement protein, full-length, wild type (MP^WT), fused to mVenus or mTurquoise2 (natural protein)
chain: B1 chain with A221T, A223S, A250S
notes: Movement protein (MP; BC1) of Abutilon mosaic virus, full-length; Two copies expressed from one T-DNA (pFRETtv-2-in-1), one with mVenus and one with mTurquoise2, in four layouts (NN, NC, CN, CC); each copy carries one fluorescent protein at one end; also called BC1; mVenus::MP^WT; source: N. benthamiana leaf epidermis, transiently expressed after agro-infiltration, in living cells; not shown: …

Legend:
[1] = biological target: AbMV movement protein (MP; BC1) (UniProt P21946); assay: acceptor photobleaching FRET, tag layout NC; conditions: sites T221,S223,S250
[2] = biological target: the molecule itself; assay: FRET or BRET; acceptor photobleaching FRET in living N. benthamiana leaf epidermal cells, 3 dpai; acceptor mVenus, donor mTurquoise2; four layouts (NN, NC, CN, CC); without and with local AbMV (DNA-A + DNA-BΔMP) infection; ROIs along the plasma membrane; p19 co-infiltrated

| Molecule | other: mean FRET efficiency ([1]; reference: MPAAA with MPAAA) | other: mean FRET efficiency ([1]; reference: MPWT with MPWT) | mean FRET efficiency (layout NC, with AbMV) [2] | mean FRET efficiency (layout NC, without AbMV) [2] |
| --- | --- | --- | --- | --- |
| AbMV movement protein (MP; BC1) (from UniProt P21946) MPDDD with MPDDD | weaker; reference 50; also recorded: weaker; reference 42 | same; reference 28 | – | – |
| AbMV movement protein (MP; BC1) (from UniProt P21946) MPAAA with MPAAA | – | stronger; reference 36; also recorded: stronger; reference 28 | – | – |
| B1 | – | – | 42% | 50% |
| B2 | – | – | 30% | 14% |
| B3 | – | – | 28% | 36% |
